Measured values: patent US5688671A, “Mutant aspartokinase gene” (Ajinomoto Co., Inc., priority 1993, dated 1997)

Columns and labels:
aspartokinase = experiment: Aspartokinase (AK) activity of cell-disrupted solutions of Corynebacterium glutamicum strains, with and without L-lysine/L-threonine; assay type: biochemical, Corynebacterium glutamicum (Brevibacterium lactofermentum); conditions: plasmids introduced into AJ12036; for 2 mM Lys + Thr (desensitization degree of inhibition): 2 mM lysine + threonine; for 5 mM Lys (desensitization degree of inhibition): lysine 5 mM; for Specific activity: Table 5; for 5 mM Thr (desensitization degree of inhibition): threonine 5 mM
Text: When a wild type strain is used as a donor for the DNA fragment containing the AK gene, a DNA fragment containing a wild type AK gene can be obtained. The DNA fragment containing the gene for AK in which synergistic feedback inhibition by L-lysine and L-threonine is substantially desensitized can be obtained by using a mutant strain in which synergistic feedback inhibition on the AK activity by L-lysine and L-threonine is substantially desensitized. The mutant strain can be obtained, for example, from a group of cells subjected to an ordinary mutation treatment, ultraviolet light irradiation, or a treatment with a mutating agent such as N-methyl-N'-nitro-N-nitrosoguanidine (NTG). The AK activity can be measured by using a method described in Miyajima, R. et al., The Journal of Biochemistry (1968), 63(2), 139-148.
Strains were prepared by introducing the wild type AK plasmid p399AKYB and the mutant AK plasmid p399AK9B respectively into AJ12036 strain (FERM P-7559) as a wild type strain of Corynebacterium glutamicum (Brevibacterium lactofermentum). The genes were introduced into Corynebacterium by means of an electric pulse method. The aspartokinase activity was measured for Corynebacterium glutamicum (Brevibacterium lactofermentum) AJ12036 strain as a host, AJ12690 strain harboring the wild type AK plasmid, and AJ12691 (FERM P12918) strain harboring the mutant AK plasmid. The activity was measured in accordance with an ordinary method (see Miyajima, R. et al., The Journal of Biochemistry (1968) 63(2), 139-148). […]
Strains were prepared by introducing 8 kinds of the plasmids shown in Table 3 into AJ12036 strain (FERM P-7559) as a wild type strain of Corynebacterium glutamicum (Brevibacterium lactofermentum) in the same manner as Example 3. The AK activity was measured for each of the strains. […] The desensitization degree of inhibition by lysine and/or threonine was similar to those in Example 6.

[1] = tested on: Corynebacterium glutamicum (Brevibacterium lactofermentum) AJ12036; experiment: L-lysine productivity evaluated by cultivation in production medium; assay type: cell-based; conditions: plasmids introduced into AJ12036; cultivation as in Example 3
Protocol: The lysine productivity was evaluated by cultivation for the wild type strain AJ12036, the wild type AK plasmid-harboring strain AJ12690, and the mutant AK plasmid-harboring strain AJ12691 (FERM P-12918). The evaluation by cultivation was performed by inoculating the strains to a production medium (containing glucose 100 g, (NH4)2 SO4 55 g, KH2 PO4 1 g, MgSO4.7H2 O 1 g, soybean protein acid hydrolysate "Mamenou" (product of Ajinomoto Co., Ltd., trade name) 50 ml, FeSO4.7H2 O 10 mg, MnSO4.4H2 O 10 mg, nicotinic acid amide 5 mg, and CaCO3 50 g in 1 l of pure water, pH 8.0), and cultivating them with reciprocatory shaking at 31.5° C. for 72 hours. […] The plasmid-holding ratio upon completion of the cultivation was measured by using an index of chloramphenicol resistance as a drug resistance marker of the plasmid.
The lysine productivity was further evaluated by cultivation for the 9 kinds of these strains by using a method similar to that in Example 3.

AK [2] = experiment: AK enzyme activity and inhibition by lysine/threonine in cell-free extracts of AK-deficient Escherichia coli Gif106M1 transformants; assay type: biochemical, Corynebacterium glutamicum; conditions: for inhibition by lysine alone as compared with the wild type / Specific activity: E. coli Gif106M1 cell-free extracts; for Specific activity: Table 4; for 5 mM Lys + Thr (degree of desensitization of inhibition, activity-holding ratio): lysine 5 mM+threonine 5 mM; for 5 mM Lys + Thr (degree of desensitization of inhibition, activity-holding ratio) / 5 mM Lys (degree of desensitization of inhibition, activity-holding ratio) / 5 mM Thr (degree of desensitization of inhibition, activity-holding ratio): activity without addition = 100%, E. coli Gif106M1 extracts; for 5 mM Lys (degree of desensitization of inhibition, activity-holding ratio): lysine 5 mM; for 5 mM Thr (degree of desensitization of inhibition, activity-holding ratio): threonine 5 mM
Text: Bacteriol. 112, 84-92 (1972), Theze, J. et al., J. […] It is known that most of genes of bacteria belonging to the genus Corynebacterium are expressed in Escherichia coli. In addition, the AK gene was ligated at a position downstream from lac promoter on pHSG399. Thus it was postulated that the gene could be expressed in Escherichia coli. […] Thus it was confirmed that AK from the bacteria belonging to the genus Corynebacterium was expressed and operated in cells of Escherichia coli. Subsequently, cell-free extracts were prepared from bacterial cells, and the enzyme activity of AK was measured. Upon measurement of the enzyme activity of AK, various concentrations of lysine and threonine were added to enzyme reaction solutions to investigate the degree of inhibition (FIG. 2). […] (Ki value: 0.4 mM→5.0 mM). […] Cell-free extracts were prepared, and enzymes were analyzed.

AK [3] = experiment: Thermal stability of AK, treatment at 55° C. for 1.5 hour; assay type: biochemical, Corynebacterium glutamicum; conditions: FIG. 6
Protocol: The activity-holding ratio after a treatment at 55° C. for 90 minutes is indicated by %.
Thermal stability was investigated as an index of stability of the enzyme structure constructed by the introduction of mutation. The treatment condition was set at 55° C. for 1.5 hour in which the activity of the wild type AK was about 80%.

B1: Tyr: mutant aspartokinase 279 Ala→Tyr, plasmid p399AKAY (p399AKAYB) (protein, UniProt P26512 1-421, looked up, variant A279Y)
Aspartokinase: MALVVQKYGGSSLESAERIRNVAERIVATKKAGNDVVVVCSAMGDTTDELLELAAAVNPVPPAREMDMLLTAGERISNALVAMAIESLGAEAQSFTGSQAGVLTTERHGNARIVDVTPGRVREALDEGKICIVAGFQGVNKETRDVTTLGRGGSDTTAVALAAALNADVCEIYSDVDGVYTADPRIVPNAQKLEKLSFEEMLELAAVGSKILVLRSVEYARAFNVPLRVRSSYSNDPGTLIAGSMEDIPVEEAVLTGVATDKSEAKVTVLGISDKPGEYAKVFRALADAEINIDMVLQNVSSVEDGTTDITFTCPRSDGRRAMEILKKLQVQGNWTNVLYDDQVGKVSLVGAGMKSHPGVTAEFMEALRDVNVNIELISTSEIRISVLIREDDLDAAARALHEQFQLGGEDEAVVYAGTGR
aspartokinase
  2 mM Lys + Thr (desensitization degree of inhibition): 32.2%
  5 mM Lys (desensitization degree of inhibition): 16.1%
  Specific activity: 425.6 mU/mg protein
  5 mM Thr (desensitization degree of inhibition): 104.8%
[1]
  Lys--HCl: 25.12 g/L
AK [2]
  inhibition by lysine alone as compared with the wild type: enhanced
  Specific activity: 14.4 mU/mg protein
  5 mM Lys + Thr (degree of desensitization of inhibition, activity-holding ratio): 19.4%
  5 mM Lys (degree of desensitization of inhibition, activity-holding ratio): 14.4%
  5 mM Thr (degree of desensitization of inhibition, activity-holding ratio): 103.6%
AK [3]
  thermal stability compared with the wild type: higher stability than that of the wild type

B2: Phe: mutant aspartokinase 279 Ala→Phe, plasmid p399AKAF (p399AKAFB) (protein, UniProt P26512 1-421, looked up, variant A279F)
Aspartokinase: MALVVQKYGGSSLESAERIRNVAERIVATKKAGNDVVVVCSAMGDTTDELLELAAAVNPVPPAREMDMLLTAGERISNALVAMAIESLGAEAQSFTGSQAGVLTTERHGNARIVDVTPGRVREALDEGKICIVAGFQGVNKETRDVTTLGRGGSDTTAVALAAALNADVCEIYSDVDGVYTADPRIVPNAQKLEKLSFEEMLELAAVGSKILVLRSVEYARAFNVPLRVRSSYSNDPGTLIAGSMEDIPVEEAVLTGVATDKSEAKVTVLGISDKPGEFAKVFRALADAEINIDMVLQNVSSVEDGTTDITFTCPRSDGRRAMEILKKLQVQGNWTNVLYDDQVGKVSLVGAGMKSHPGVTAEFMEALRDVNVNIELISTSEIRISVLIREDDLDAAARALHEQFQLGGEDEAVVYAGTGR
aspartokinase
  2 mM Lys + Thr (desensitization degree of inhibition): 32.4%
  5 mM Lys (desensitization degree of inhibition): 14.6%
  Specific activity: 447.7 mU/mg protein
  5 mM Thr (desensitization degree of inhibition): 105.0%
[1]
  Lys--HCl: 25.14 g/L
AK [2]
  inhibition by lysine alone as compared with the wild type: enhanced
  Specific activity: 18.7 mU/mg protein
  5 mM Lys + Thr (degree of desensitization of inhibition, activity-holding ratio): 18.2%
  5 mM Lys (degree of desensitization of inhibition, activity-holding ratio): 12.1%
  5 mM Thr (degree of desensitization of inhibition, activity-holding ratio): 103.0%
AK [3]
  thermal stability compared with the wild type: higher stability than that of the wild type
